Data published in the supplement of paper PMC11316812.
± gives the standard deviation of the averaged measurements.

Key:
MCF7 = assay: percentage of EdU-negative (G0-arrested) nuclei per well, 72 h; higher = more G0 arrest; details: reference: sequence is the full UniProt precursor, the tested protein was the secreted form or ectodomain
hTERT-HMEC = assay: as above; details: reference: sequence is the full UniProt precursor, the tested protein was the secreted form or ectodomain
[1] = protein concentration 0.0173575 µM
[2] = protein concentration 0.173575 µM
[3] = protein concentration 0.0224225 µM
[4] = protein concentration 0.0243425 µM
[5] = protein concentration 0.028825 µM
[6] = protein concentration 0.224225 µM
[7] = protein concentration 0.243425 µM
[8] = protein concentration 0.28825 µM
[9] = protein concentration 0.0085 µM
[10] = protein concentration 0.0301275 µM
[11] = protein concentration 0.301275 µM
[12] = protein concentration 0.03125 µM
[13] = protein concentration 0.3125 µM
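Also: secreted proteins added to cultured cells, EdU pulse at the end, nuclei found by Hoechst imaging, EdU status from nuclear versus surrounding ring intensity ratio, PBS as neutral control.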

**Q.** With “MRAAPLLLARAASLSLGFLFLLFFWLDRSVLAKELKFVTLVFRHGDRSPIDTFPTDPIKESSWPQGFGQLTQLGMEQHYELGEYIRKRYRKFLNESYKHEQVYIRSTDVDRTLMSAMTNLAALFPPEGVSIWNPILLWQPIPVHTVPLSEDQLLYLPFRNCPRFQELESETLKSEEFQKRLHPYKDFIATLGKLSGLHGQDLFGIWSKVYDPLYCESVHNFTLPSWATEDTMTKLRELSELSLLSLYGIHKQKEKSRLQGGVLVNEILNHMKRATQIPSYKKLIMYSAHDTTVSGLQMALDVYNGLLPPYASCHLTELYFEKGEYFVEMYYRNETQHEPYPLMLPGCSPSCPLERFAELVGPVIPQDWSTECMTTNSHQGTEDSTD” as the sequence, how does the “percentage of EdU-negative” value (MCF7; [1]) read?
**A.** 26.5 ± 0.46%

**Q.** What about the “percentage of EdU-negative” value (MCF7; [2]) of the same sequence?
**A.** 27.8 ± 1.6%

**Q.** What about the “percentage of EdU-negative” value (hTERT-HMEC; [1]) of the same sequence?
**A.** 5.15 ± 0.62%

**Q.** And the “percentage of EdU-negative” value (hTERT-HMEC; [2])?
**A.** 5.55 ± 0.26%

**Q.** Which “percentage of EdU-negative” value (MCF7; [3]) does the source give for “MRACISLVLAVLCGLAWAGKIESCASRCNEKFNRDAACQCDRRCLWHGNCCEDYEHLCTEDHKESEPLPQLEEETEEALASNLYSAPTSCQGRCYEAFDKHHQCHCNARCQEFGNCCKDFESLCSDHEVSHSSDAITKEEIQSISEKIYRADTNKAQKEDIVLNSQNCISPSETRNQVDRCPKPLFTYVNEKLFSKPTYAAFINLLNNYQRATGHGEHFSAQELAEQDAFLREIMKTAVMKELYSFLHHQNRYGSEQEFVDDLKNMWFGLYSRGNEEGDSSGFEHVFSGEVKKGKVTGFHNWIRFYLEEKEGLVDYYSHIYDGPWDSYPDVLAMQFNWDGYYKEVGSAFIGSSPEFEFALYSLCFIARPGKVCQLSLGGYPLAVRTYTWDKSTYGNGKKYIATAYIVSST” here?
**A.** 25.11 ± 0.21%

**Q.** What about the “percentage of EdU-negative” value (MCF7; [4]) of the same sequence?
**A.** 25.2 ± 1.4%

**Q.** What about the “percentage of EdU-negative” value (MCF7; [5]) of the same sequence?
**A.** 24.16 ± 0.045%

**Q.** And the “percentage of EdU-negative” value (MCF7; [6])?
**A.** 28.6 ± 2.5%

**Q.** And the “percentage of EdU-negative” value (MCF7; [7])?
**A.** 27.3 ± 0.39%

**Q.** What about the “percentage of EdU-negative” value (MCF7; [8]) of the same sequence?
**A.** 27.382 ± 0.0011%

**Q.** What about the “percentage of EdU-negative” value (hTERT-HMEC; [3]) of the same sequence?
**A.** 5.37 ± 0.81%

**Q.** And the “percentage of EdU-negative” value (hTERT-HMEC; [4])?
**A.** 4.65 ± 0.23%

**Q.** What about the “percentage of EdU-negative” value (hTERT-HMEC; [5]) of the same sequence?
**A.** 5.03 ± 0.15%

**Q.** And the “percentage of EdU-negative” value (hTERT-HMEC; [6])?
**A.** 5.94 ± 0.48%

**Q.** And the “percentage of EdU-negative” value (hTERT-HMEC; [7])?
**A.** 8.43 ± 1.2%

**Q.** What about the “percentage of EdU-negative” value (hTERT-HMEC; [8]) of the same sequence?
**A.** 6.74 ± 0.95%

**Q.** Which results are given for “MRALEGPGLSLLCLVLALPALLPVPAVRGVAETPTYPWRDAETGERLVCAQCPPGTFVQRPCRRDSPTTCGPCPPRHYTQFWNYLERCRYCNVLCGEREEEARACHATHNRACRCRTGFFAHAGFCLEHASCPPGAGVIAPGTPSQNTQCQPCPPGTFSASSSSSEQCQPHRNCTALGLALNVPGSSSHDTLCTSCTGFPLSTRVPGAEECERAVIDFVAFQDISIKRLQRLLQALEAPEGWGPTPRAGRAALQLKLRRRLTELLGAQDGALLVRLLQALRVARMPGLERSVRERFLPVH”?
**A.** percentage of EdU-negative (MCF7; [9]): 22.9 ± 1.3%; percentage of EdU-negative (MCF7; protein concentration 0.085 µM): 27.9 ± 2.1%; percentage of EdU-negative (hTERT-HMEC; [9]): 4.68 ± 0.12%; percentage of EdU-negative (hTERT-HMEC; protein concentration 0.085 µM): 8.46 ± 1.8%

**Q.** How did the “percentage of EdU-negative” value (MCF7; protein concentration 0.009 µM) turn out when “MRALLLLGFLLVSLESTLSIPPWEAPKEHKYKAEEHTVVLTVTGEPCHFPFQYHRQLYHKCTHKGRPGPQPWCATTPNFDQDQRWGYCLEPKKVKDHCSKHSPCQKGGTCVNMPSGPHCLCPQHLTGNHCQKEKCFEPQLLRFFHKNEIWYRTEQAAVARCQCKGPDAHCQRLASQACRTNPCLHGGRCLEVEGHRLCHCPVGYTGAFCDVDTKASCYDGRGLSYRGLARTTLSGAPCQPWASEATYRNVTAEQARNWGLGGHAFCRNPDNDIRPWCFVLNRDRLSWEYCDLAQCQTPTQAAPPTPVSPRLHVPLMPAQPAPPKPQPTTRTPPQSQTPGALPAKREQPPSLTRNGPLSCGQRLRKSLSSMTRVVGGLVALRGAHPYIAALYWGHSFCAGSLIAPCWVLTAAHCLQDRPAPEDLTVVLGQERRNHSCEPCQTLAVRSYRLHEAFSPVSYQHDLALLRLQEDADGSCALLSPYVQPVCLPSGAARPSETTLCQVAGWGHQFEGAEEYASFLQEAQVPFLSLERCSAPDVHGSSILPGMLCAGFLEGGTDACQGDSGGPLVCEDQAAERRLTLQGIISWGSGCGDRNKPGVYTDVAYYLAWIREHTVS” was run?
**A.** 27.06 ± 0.031%

**Q.** What about the “percentage of EdU-negative” value (MCF7; protein concentration 0.09 µM) of the same sequence?
**A.** 27.973 ± 0.024%

**Q.** What about the “percentage of EdU-negative” value (hTERT-HMEC; protein concentration 0.009 µM) of the same sequence?
**A.** 5.23 ± 0.56%

**Q.** What about the “percentage of EdU-negative” value (hTERT-HMEC; protein concentration 0.09 µM) of the same sequence?
**A.** 49.1 ± 0.6%

**Q.** What does the source list for “MRALRDRAGLLLCVLLLAALLEAALGLPVKKPRLRGPRPGSLTRLAEVSASPDPRPLKEEEEAPLLPRTHLQAEPHQHGCWTVTEPAAMTPGNATPPRTPEVTPLRLELQKLPGLANTTLSTPNPDTQASASPDPRPLREEEEARLLPRTHLQAELHQHGCWTVTEPAALTPGNATPPRTQEVTPLLLELQKLPELVHATLSTPNPDNQVTIKVVEDPQAEVSIDLLAEPSNPPPQDTLSWLPALWSFLWGDYKGEEKDRAPGEKGEEKEEDEDYPSEDIEGEDQEDKEEDEEEQALWFNGTTDNWDQGWLAPGDWVFKDSVSYDYEPQKEWSPWSPCSGNCSTGKQQRTRPCGYGCTATETRTCDLPSCPGTEDKDTLGLPSEEWKLLARNATDMHDQDVDSCEKWLNCKSDFLIKYLSQMLRDLPSCPCAYPLEAMDSPVSLQDEHQGRSFRWRDASGPRERLDIYQPTARFCLRSMLSGESSTLAAQHCCYDEDSRLLTRGKGAGMPNLISTDFSPKLHFKFDTTPWILCKGDWSRLHAVLPPNNGRACTDNPLEEEYLAQLQEAKEY [Q6H9L7]”?
**A.** percentage of EdU-negative (MCF7; [10]): 24.4 ± 0.93%; percentage of EdU-negative (MCF7; [11]): 28.4 ± 1.3%; percentage of EdU-negative (hTERT-HMEC; [10]): 5.26 ± 0.1%; percentage of EdU-negative (hTERT-HMEC; [11]): 5.07 ± 0.18%

**Q.** Which “percentage of EdU-negative” value (MCF7; [12]) does the source give for “MRALVLLLSLFLLGGQAQHVSDWTYSEGALDEAHWPQHYPACGGQRQSPINLQRTKVRYNPSLKGLNMTGYETQAGEFPMVNNGHTVQISLPSTMRMTVADGTVYIAQQMHFHWGGASSEISGSEHTVDGIRHVIEIHIVHYNSKYKSYDIAQDAPDGLAVLAAFVEVKNYPENTYYSNFISHLANIKYPGQRTTLTGLDVQDMLPRNLQHYYTYHGSLTTPPCTENVHWFVLADFVKLSRTQVWKLENSLLDHRNKTIHNDYRRTQPLNHRVVESNFPNQEYTLGSEFQFYLHKIEEILDYLRRALN” here?
**A.** 24.6 ± 1.3%

**Q.** And the “percentage of EdU-negative” value (MCF7; [13])?
**A.** 23.7 ± 0.28%

**Q.** What about the “percentage of EdU-negative” value (hTERT-HMEC; [12]) of the same sequence?
**A.** 5.04 ± 0.54%

**Q.** What about the “percentage of EdU-negative” value (hTERT-HMEC; [13]) of the same sequence?
**A.** 4.6 ± 0.89%
